± gives the standard error. This sample holds only a part of the variants without activity.
B1: glmS ribozyme (parent)
chain: AUAAAAGCGCCAGAACUACAGAAAUGUAGUUGACGAGGAGGAGGUUUAUCGAAUUUUCGGCGGAUGCCUCCAAA

What was measured:
Conditions in all cases: with glucosamine-6-phosphate
[1] = variants of: B1; experiment: self-cleavage kobs at 640 uM GlcN6P; higher = faster cleavage; RNA array
Procedure, shortened: (§1)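 Barcoded ribozyme variants were transcribed in situ on sequenced MiSeq chips by E. coli RNA polymerase. At 37 °C, a hybridised Cy3 probe tracked them while glucosamine-6-phosphate (40 μM to 10 mM) in HEPES/KCl/Mg(OAc)2 buffer flowed in and tiles were imaged over ~14 h. Per-tile medians of signals normalised to baseline and to non-cleaving reference variants were fit to one- or two-exponential decays, giving kobs. kcat and KM came from weighted Michaelis–Menten fits across concentrations.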

[2] = variants of: B1; experiment: self-cleavage kobs at 2500 uM GlcN6P; higher = faster cleavage; RNA array
Procedure, shortened: as §1

[3] = variants of: B1; experiment: self-cleavage kobs at 10000 uM GlcN6P; higher = faster cleavage; RNA array
Procedure, shortened: as §1

| Variant | self-cleavage kobs at 640 uM GlcN6P [1] | self-cleavage kobs at 2500 uM GlcN6P [2] | self-cleavage kobs at 10000 uM GlcN6P [3] |
| --- | --- | --- | --- |
| C8U U46G G51U G66U C70G C71U | < 1e-05 s⁻¹ |  |  |
| G7A G51A C58A | < 1e-05 s⁻¹ | < 1e-05 s⁻¹ |  |
| G43A U57G U69A | < 1e-05 s⁻¹ |  |  |
| C8U U30A C71U | < 1e-05 s⁻¹ |  |  |
| C11U U30G U57A C61U | < 1e-05 s⁻¹ |  |  |
| C11A G63A C67A U69C | < 1e-05 s⁻¹ |  |  |
| G13U G62C | < 1e-05 s⁻¹ | < 1e-05 s⁻¹ |  |
| C34U A39C A53U | < 1e-05 s⁻¹ | < 1e-05 s⁻¹ |  |
| G37A A42U G44C G59A | < 1e-05 s⁻¹ | < 1e-05 s⁻¹ |  |
| A14U A36C G37A G38A | < 1e-05 s⁻¹ |  |  |
| G9C C16A G63C C71G | < 1e-05 s⁻¹ |  |  |
| A12C G13A A14G C16A U17C A18U A39G C50U A52G | < 1e-05 s⁻¹ |  |  |
| G59A U69A | < 1e-05 s⁻¹ |  |  |
| A14G G35C A48U | < 1e-05 s⁻¹ |  |  |
| C10U A33G G40U C50G | < 1e-05 s⁻¹ |  |  |
| A48C G60C C71G | < 1e-05 s⁻¹ | < 1e-05 s⁻¹ |  |
| A36C G40C | < 1e-05 s⁻¹ | < 1e-05 s⁻¹ | < 1e-05 s⁻¹ |
| C11G A39C C67G | < 1e-05 s⁻¹ | < 1e-05 s⁻¹ |  |
| C16A G43U | < 1e-05 s⁻¹ |  | < 1e-05 s⁻¹ |
| G37U G38U C68A | 0.00155 ± 0.00045 s⁻¹ |  |  |
| G41C U47G G59U | < 1e-05 s⁻¹ | < 1e-05 s⁻¹ |  |
| A14U G35A G63U | < 1e-05 s⁻¹ |  |  |
| A39C A42U G62C A64U | < 1e-05 s⁻¹ |  |  |

| Variant | self-cleavage kobs at 640 uM GlcN6P [1] | self-cleavage kobs at 2500 uM GlcN6P [2] | self-cleavage kobs at 10000 uM GlcN6P [3] |
| --- | --- | --- | --- |
| G13A C61U | < 1e-05 s⁻¹ | < 1e-05 s⁻¹ | < 1e-05 s⁻¹ |
| A12G A14U C16G U46A A53U | < 1e-05 s⁻¹ |  |  |
| G59U C70G | 0.000548 ± 0.00023 s⁻¹ |  |  |
| G29C G51U C61G C70A | 9.9e-05 ± 3.7e-05 s⁻¹ | 7.11e-05 ± 2.2e-05 s⁻¹ |  |
| A14C C50U U54A | < 1e-05 s⁻¹ | < 1e-05 s⁻¹ |  |
| G21A G44U | 9.22e-05 ± 2.3e-05 s⁻¹ | 0.000164 ± 3.3e-05 s⁻¹ |  |
| A36C C67A | < 1e-05 s⁻¹ |  |  |
| A33C C50A C68A | < 1e-05 s⁻¹ | < 1e-05 s⁻¹ |  |
| A14G G44U U46A | 0.000181 ± 4.5e-05 s⁻¹ | 0.000253 ± 8.6e-05 s⁻¹ |  |
| A6G G9A G29A G32U G40U | < 1e-05 s⁻¹ |  |  |
| G32U G51A U57A | < 1e-05 s⁻¹ | < 1e-05 s⁻¹ |  |
| C10G C67G C68U | 0.0001 ± 4.2e-05 s⁻¹ | 7.32e-05 ± 3e-05 s⁻¹ | 2.77e-05 ± 1.3e-05 s⁻¹ |
| U49C U65A | < 1e-05 s⁻¹ |  | < 1e-05 s⁻¹ |
| G7U A15U G44C | < 1e-05 s⁻¹ | < 1e-05 s⁻¹ |  |
| A33C C50U G60U | < 1e-05 s⁻¹ |  |  |
| G9A C61G C68A | < 1e-05 s⁻¹ | < 1e-05 s⁻¹ |  |
| G7C C11G G41A | < 1e-05 s⁻¹ | < 1e-05 s⁻¹ |  |
| C10A G32C C34U | < 1e-05 s⁻¹ |  |  |
| U30C G59C G63U | < 1e-05 s⁻¹ |  |  |
| G7A A33C A39U | < 1e-05 s⁻¹ |  |  |
| C8A G40A A42U G62C | < 1e-05 s⁻¹ |  |  |
| A39U A52G U54G U57C | 3.84e-05 ± 1.7e-05 s⁻¹ | 0.00016 ± 4.9e-05 s⁻¹ |  |
| C11U C58A G62U | < 1e-05 s⁻¹ |  |  |

| Variant | self-cleavage kobs at 640 uM GlcN6P [1] | self-cleavage kobs at 2500 uM GlcN6P [2] | self-cleavage kobs at 10000 uM GlcN6P [3] |
| --- | --- | --- | --- |
| C34G G41U G51C C71G | < 1e-05 s⁻¹ |  |  |
| G29A G38U C50G | 0.00061 ± 0.00027 s⁻¹ |  |  |
| G32A G44U C67U | 0.000148 ± 2.8e-05 s⁻¹ | 0.000244 ± 5.3e-05 s⁻¹ |  |
| G7U C68G | 0.000534 ± 0.00015 s⁻¹ |  |  |
| C8U A12G G66U | < 1e-05 s⁻¹ |  |  |
| A14G C16A U56A | 0.00547 ± 0.0015 s⁻¹ | 0.00293 ± 0.0013 s⁻¹ |  |
| U31A U69C C71G | 8.22e-05 ± 1.8e-05 s⁻¹ | 6.01e-05 ± 1.7e-05 s⁻¹ | 3.9e-05 ± 1.6e-05 s⁻¹ |
| A14G A39U G41U G51A G59A | < 1e-05 s⁻¹ |  |  |
| C10A G51A | < 1e-05 s⁻¹ |  | < 1e-05 s⁻¹ |
| C16U G29A U31G | 0.00216 ± 0.00066 s⁻¹ | 0.0232 ± 0.011 s⁻¹ |  |
| C10A G13A C50A C58U C71G | 0.000823 ± 0.00036 s⁻¹ | 7.64e-05 ± 3.6e-05 s⁻¹ |  |
| U31C U56A | 0.00164 ± 0.00028 s⁻¹ | 0.00201 ± 0.00053 s⁻¹ |  |
| G35A G43C C68A | < 1e-05 s⁻¹ | < 1e-05 s⁻¹ |  |
| G40A G41C A42C C70U | < 1e-05 s⁻¹ |  |  |
| G9U A33C G41U G62C | < 1e-05 s⁻¹ | < 1e-05 s⁻¹ |  |
| A14G A33U G35C | < 1e-05 s⁻¹ |  |  |
| C61U C68G | 4.29e-05 ± 1.5e-05 s⁻¹ |  |  |
| G40U G41U C68U | < 1e-05 s⁻¹ | < 1e-05 s⁻¹ |  |
| G43A A48G U56A C68G | < 1e-05 s⁻¹ |  |  |
| C16A G41A G43U C61G C68U | < 1e-05 s⁻¹ | < 1e-05 s⁻¹ |  |
| C8A C19A | < 1e-05 s⁻¹ | < 1e-05 s⁻¹ |  |
